We go through eleven molecules from patent publication US20220396632A1 (VERSEAU THERAPEUTICS, published 2022).

The target of experiment [1] is T1, Recombinant human PSGL-1(ECD)-hFc1 (R&D Systems, Cat. 3345-PS) (human, UniProt Q14242 42-305).
T1 construct: Bought; Gln42-Val295 counted on AAC50061; also called PSGL-1-Fc; PSGL-1-hFc1 chimera; not shown: human IgG1 Fc, Pro100-Lys330
T1 sequence: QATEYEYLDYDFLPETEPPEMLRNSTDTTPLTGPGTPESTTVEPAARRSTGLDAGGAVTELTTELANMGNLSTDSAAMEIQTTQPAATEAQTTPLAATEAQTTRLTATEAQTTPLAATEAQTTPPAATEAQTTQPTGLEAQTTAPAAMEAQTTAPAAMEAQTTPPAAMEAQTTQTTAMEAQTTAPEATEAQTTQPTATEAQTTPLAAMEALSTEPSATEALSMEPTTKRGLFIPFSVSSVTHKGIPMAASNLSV
Briefly: ELISA, 50 nM mAb. How it is done:
(§1) Recombinant PSGL-1-hFc1 chimera protein consisting of PSGL-1's extracellular domain (ECD) served as a positive control. […] Primary antibody was added (25 ul per well) in duplicate at 50 nM in assay buffer (blocking buffer containing 0.05% Tween®20) into test and control (just blocked) wells and the plate incubated for 45 min at 37° C.
(In general: In an ELISA, binding on a coated surface is turned into a signal by an enzyme label.)

The target in experiment [2] is T2, Human complement C4 protein (Millipore Sigma, Cat. 204886) (human, UniProt P0C0L4 20-675; P0C0L4 680-1446; P0C0L4 1454-1744, limits assumed, natural sulfotyrosines).
T2 construct: mature
The experiment can be described thus: ELISA, 50 nM mAb. How it is done:
as §1

In experiment [3] the target is T3, Human fibrinogen protein (ThermoFisher, RP-43142) (human, UniProt P02671 20-629; P02675 31-491; P02679 27-453, limits assumed, natural sulfotyrosines).
T3 construct: mature; Native dimer with 3 pairs of non-identical chains; also called gamma-fibrinogen; γ fibrinogen protein
T3 sequence (looked up) 1: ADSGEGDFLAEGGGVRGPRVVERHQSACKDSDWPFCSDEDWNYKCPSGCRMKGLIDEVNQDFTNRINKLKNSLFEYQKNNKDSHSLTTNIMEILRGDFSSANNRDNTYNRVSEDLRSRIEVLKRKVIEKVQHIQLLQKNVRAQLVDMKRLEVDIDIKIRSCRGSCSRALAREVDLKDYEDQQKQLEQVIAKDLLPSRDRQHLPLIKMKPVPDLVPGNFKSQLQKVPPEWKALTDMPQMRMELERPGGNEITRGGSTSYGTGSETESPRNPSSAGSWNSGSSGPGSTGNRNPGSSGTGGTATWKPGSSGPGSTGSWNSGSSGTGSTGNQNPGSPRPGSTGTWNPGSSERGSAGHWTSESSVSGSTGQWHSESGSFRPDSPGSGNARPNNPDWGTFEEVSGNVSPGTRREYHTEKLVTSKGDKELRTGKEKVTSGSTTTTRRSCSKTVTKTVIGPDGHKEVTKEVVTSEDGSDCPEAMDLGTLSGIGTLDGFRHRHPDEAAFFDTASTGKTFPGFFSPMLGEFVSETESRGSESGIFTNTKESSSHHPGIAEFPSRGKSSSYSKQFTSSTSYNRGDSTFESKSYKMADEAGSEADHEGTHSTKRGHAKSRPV
T3 sequence (looked up) 2: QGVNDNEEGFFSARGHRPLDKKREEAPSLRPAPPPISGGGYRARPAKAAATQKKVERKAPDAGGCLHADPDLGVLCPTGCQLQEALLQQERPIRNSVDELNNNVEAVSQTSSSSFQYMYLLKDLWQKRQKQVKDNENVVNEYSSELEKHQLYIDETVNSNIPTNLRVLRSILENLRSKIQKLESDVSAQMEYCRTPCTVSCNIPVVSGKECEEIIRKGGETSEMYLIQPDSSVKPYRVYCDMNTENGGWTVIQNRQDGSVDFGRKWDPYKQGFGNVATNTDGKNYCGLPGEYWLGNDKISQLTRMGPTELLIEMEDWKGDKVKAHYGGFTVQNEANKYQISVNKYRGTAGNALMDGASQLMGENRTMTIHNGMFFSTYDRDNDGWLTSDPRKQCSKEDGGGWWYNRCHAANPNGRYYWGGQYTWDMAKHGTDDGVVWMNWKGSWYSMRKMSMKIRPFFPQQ
T3 sequence (looked up) 3: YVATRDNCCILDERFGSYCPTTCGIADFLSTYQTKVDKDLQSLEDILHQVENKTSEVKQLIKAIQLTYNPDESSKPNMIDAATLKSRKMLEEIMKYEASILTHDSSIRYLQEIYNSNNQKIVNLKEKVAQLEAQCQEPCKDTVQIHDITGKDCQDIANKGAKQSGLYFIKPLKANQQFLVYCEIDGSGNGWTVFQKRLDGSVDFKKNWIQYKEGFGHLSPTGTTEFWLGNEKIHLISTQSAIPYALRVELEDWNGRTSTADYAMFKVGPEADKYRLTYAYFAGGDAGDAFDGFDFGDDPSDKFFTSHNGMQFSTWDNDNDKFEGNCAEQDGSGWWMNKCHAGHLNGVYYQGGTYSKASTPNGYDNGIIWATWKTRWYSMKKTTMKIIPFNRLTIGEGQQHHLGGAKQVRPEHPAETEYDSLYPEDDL
The experiment can be described thus: ELISA, 50 nM mAb. How it is done: as §1

Experiment [4] concerns the target T4, Cynomolgus PSGL-1(ECD)-hFc1 (cynomolgus macaque).
T4 construct: also called Cyno PSGL1-Fc; Cyno PSGL-1(ECD)-Fc
The experiment can be described thus: ELISA, 20 nM mAb on plate cyno PSGL-1(ECD)-Fc. The essentials: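 Single-point (20 nM) or full-curve (0.003–200 nM) antibody binding measured against plate-immobilized recombinant cyno PSGL-1(ECD). Plates were coated overnight at 4 °C at 3 µg/mL in PBS pH 7.4, and antibody incubated 45 min at 37 °C. Detection was by TMB absorbance at 450 nm, with duplicate mean minus background.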

T2 sequence (P0C0L4 20-675 limits assumed, form in doubt, chain 1 of 3): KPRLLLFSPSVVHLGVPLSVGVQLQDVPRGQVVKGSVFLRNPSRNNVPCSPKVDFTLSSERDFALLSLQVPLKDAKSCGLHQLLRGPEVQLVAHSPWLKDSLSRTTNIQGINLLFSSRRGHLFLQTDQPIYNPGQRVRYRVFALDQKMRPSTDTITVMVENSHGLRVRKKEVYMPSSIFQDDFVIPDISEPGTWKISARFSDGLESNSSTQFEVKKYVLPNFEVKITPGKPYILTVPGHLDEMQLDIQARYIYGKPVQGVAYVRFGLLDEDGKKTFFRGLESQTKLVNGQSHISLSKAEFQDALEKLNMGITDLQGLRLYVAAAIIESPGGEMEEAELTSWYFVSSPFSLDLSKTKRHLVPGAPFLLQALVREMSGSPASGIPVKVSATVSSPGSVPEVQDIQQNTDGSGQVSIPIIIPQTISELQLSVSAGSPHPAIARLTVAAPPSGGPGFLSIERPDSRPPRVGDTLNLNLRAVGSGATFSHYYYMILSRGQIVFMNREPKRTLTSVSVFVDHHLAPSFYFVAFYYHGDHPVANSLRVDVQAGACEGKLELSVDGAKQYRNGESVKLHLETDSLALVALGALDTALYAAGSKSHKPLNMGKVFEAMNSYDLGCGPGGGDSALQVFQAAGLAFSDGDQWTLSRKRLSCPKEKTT
T2 sequence (P0C0L4 680-1446 limits assumed, form in doubt, chain 2 of 3): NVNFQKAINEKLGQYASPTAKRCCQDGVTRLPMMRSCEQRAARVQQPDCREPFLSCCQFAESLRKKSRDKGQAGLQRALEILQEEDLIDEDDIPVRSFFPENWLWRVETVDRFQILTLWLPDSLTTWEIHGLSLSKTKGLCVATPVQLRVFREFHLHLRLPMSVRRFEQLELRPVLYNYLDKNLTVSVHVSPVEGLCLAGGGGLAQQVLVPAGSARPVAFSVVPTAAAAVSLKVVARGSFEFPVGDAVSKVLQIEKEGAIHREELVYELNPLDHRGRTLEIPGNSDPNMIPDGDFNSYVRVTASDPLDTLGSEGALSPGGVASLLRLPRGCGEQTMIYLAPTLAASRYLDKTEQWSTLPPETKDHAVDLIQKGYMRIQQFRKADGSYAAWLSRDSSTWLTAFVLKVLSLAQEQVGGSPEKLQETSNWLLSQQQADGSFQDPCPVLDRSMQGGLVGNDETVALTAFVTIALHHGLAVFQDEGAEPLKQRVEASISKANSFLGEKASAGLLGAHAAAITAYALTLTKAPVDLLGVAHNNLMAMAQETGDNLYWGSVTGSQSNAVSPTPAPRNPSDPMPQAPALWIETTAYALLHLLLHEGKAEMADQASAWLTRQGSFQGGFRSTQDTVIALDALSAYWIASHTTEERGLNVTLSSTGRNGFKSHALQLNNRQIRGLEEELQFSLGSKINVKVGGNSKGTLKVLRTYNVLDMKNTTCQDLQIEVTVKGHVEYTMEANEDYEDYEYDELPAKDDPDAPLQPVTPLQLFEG
T2 sequence (P0C0L4 1454-1744 limits assumed, form in doubt, chain 3 of 3): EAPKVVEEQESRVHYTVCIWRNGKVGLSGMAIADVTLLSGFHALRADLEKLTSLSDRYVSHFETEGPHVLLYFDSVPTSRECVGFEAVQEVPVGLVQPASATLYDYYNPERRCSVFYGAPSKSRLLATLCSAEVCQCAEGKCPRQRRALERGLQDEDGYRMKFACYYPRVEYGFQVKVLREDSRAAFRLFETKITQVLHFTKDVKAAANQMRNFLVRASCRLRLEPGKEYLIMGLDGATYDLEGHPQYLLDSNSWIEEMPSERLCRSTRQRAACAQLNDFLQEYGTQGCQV

B1: 11D10 (antibody, IgG4, V domains shown)
VH: EVKLLESGGGLVQPGGSLRLSCAVSGFTFSTSAMIWVRQAPGKGLEWVSFISGSTSNTYYADSVKGRFTISRDNSKNTLYLQMNGLTAEDTAVYYCARGTAAATWGQGALVTVSS
VL: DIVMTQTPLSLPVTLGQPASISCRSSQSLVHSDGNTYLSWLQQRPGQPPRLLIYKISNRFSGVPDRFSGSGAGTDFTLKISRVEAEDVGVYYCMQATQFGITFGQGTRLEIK
In the case of B1, the A450nm in experiment [1] turned out to be 2.38 A450nm; in experiment [4], 1.4 A450 nm. Further, the entries for the “binding normalized to PSGL-1” value in experiment [2] and in experiment [3] were 0.09 and 0.03, respectively.

B2: 09A08 (antibody, IgG4, V domains shown)
VH: QVQLVQSGAAVKKPGESLKISCKGSGYTFSNYWIGWVRQMPGKGLEWMGIIYPGDSDTRYSPSFQGQVTISADKSISTAYLQWSSLKASDTAMYYCARHIVGPPKSAFDIWGQGTMVTVSS
VL: DIVMTQTPLSLPVTLGQPASISCSSSQGLQKRDGNTYLNWFQQRPGQSPRRLIYKVSNRDSGVPDRFSGSGSGTDFTLKISRVEAEDVGVYYCMQGTHWPWTFGQGTRVEIK
In the case of B2, the A450nm in experiment [1] was found to be 2.49 A450nm; in experiment [4], 1.18 A450 nm. Also, the “binding normalized to PSGL-1” value in experiment [2] came to 0.22; in experiment [3], 0.05.

B3: 07E07 (antibody, IgG4, V domains shown)
VH: QVQLQQSGAEVKKPGASVKVSCKASGYTFTSYYMHWVRQAPGQGLEWMGIINTSSGSTKYAQRFQDRVTVTRDTSTTTVYMELNSLRSEDTAVYYCARGGRAYSGSFDNWGQGTLVTVSS
VL: DVVMTQSPLSLPVTLGQPASISCRSSQSLVHRDGNTYFNWFQQRPGQSPRRLIYKVSNRDSGVPDRFSGSGSGTDFTLKISRVEAEDVGVYYCMQATHWPRTFGQGTKVEIK
Regarding B3, the A450nm stood at 2.44 A450nm in experiment [1] and 0.38 A450 nm in experiment [4]. In addition, the “binding normalized to PSGL-1” value stood at 1.04 in experiment [2] and 0.29 in experiment [3].

B4: 03F03 (antibody, V domains shown)
VH: QVQLQESGPGLVKPSETLSLTCTVSGGSISSSSYYWGWIRQPPGKGLEWIGSIYYSGSTYYNPSLKSRVTISVDTSKNQFSLKLSSVTAADTAVYYCARSRPRPWAFDIWGQGTMVTVSS
VL: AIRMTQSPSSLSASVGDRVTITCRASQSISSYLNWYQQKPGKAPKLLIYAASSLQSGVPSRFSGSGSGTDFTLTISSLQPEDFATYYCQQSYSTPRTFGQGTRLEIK
Turning to B4, the A450nm was found to be 2.12 A450nm in experiment [1] and 0.58 A450 nm in experiment [4]. The “binding normalized to PSGL-1” value in experiment [2] was 1.35; in experiment [3], 0.23.

B5: 09A02 (antibody, IgG4, V domains shown)
VH: EVQLVQSGGGLVKPGGSLRLSCAASGFTFRTAWMSWVRQAPGKGLEWVGRMKSKNDGGTTDYAAPVKGRFTISRDDSRDTVYLQMNSLKTEDTGVYYCATYAAGATVPWGQGTLVTVSS
VL: DIVMTQTPLSAPVTLGQPASISCRSSRSLLQRNGYNYVDWYQQKAGNPPRLLIYLGSRRASGVPDRFSGSGSDKDFTLKISRVEADDVGFYFCKQSLQAPPTFGGGTKIEIT
As to B5, the figures for the A450nm in experiment [1] and in experiment [4] were 2.51 A450nm and 0.73 A450 nm, respectively. For the same molecule, the “binding normalized to PSGL-1” value came out at 0.56 in experiment [2] and 0.29 in experiment [3].

B6: 05D01 (antibody, V domains shown)
VH: QVTLRESGGALVQPGGSLRLSCAASGFPLRSNAMTWVRQAPGKGLEWVSDIRGNGASTYYADSVKGRFTISRDDSNNILFLQMNSLRAEDTAVYYCVGHGSSSYWGQGTLVTVSS
VL: DVVMTQSPLSLPVTLGQPASISCRSSQSLVYRDGNIYLNWFQQRPGQSPRRLIYKVSNRDSGVPDRFSGSGSGTDFTLKISRVEAEDVGVYYCMQLTHWPPGFAQGTKLEIK
B6: the figures for the A450nm in experiment [1] and in experiment [4] were 2.33 A450nm and 1.38 A450 nm, respectively. Further, the “binding normalized to PSGL-1” value in experiment [2] was 0.08; in experiment [3], 0.07.

B7: 09D04 (antibody, IgG4, V domains shown)
VH: QVQLQQSGGGLVQPGGSLTLSCVGSGFDFRSYAMSWVRQAPGKGLEWVSGINNSGSKTYYADFVKGRFSVSRDNSKNIVWLRMRSLRAEDTAVYYCARRTFGPPHAWGQGTMVTVSS
VL: DVVMTQSPLSLPVTPGEPASISCRSSQSLLHSNGYTYLEWYLHKPGQSPQLLIYLGSNRASGVPDRFSGSGSGTDFTLKISRVEAEDVGVYYCMHSLHIPFTFGPGTKVDIK
For the molecule B7, the A450nm was determined as 2.66 A450nm in experiment [1] and 1.93 A450 nm in experiment [4]. Besides, the results for the “binding normalized to PSGL-1” value in experiment [2] and in experiment [3] were 0.61 and 0.25, respectively.

B8: 05H03 (antibody, IgG4, V domains shown)
VH: QVQLQQSGGGLVQPGGSLTLSCVGSGFDFRSYAMSWVRQAPGKGLEWVSGINNSGSKTYYADFVKGRFSVSRDNSKNIVWLRMRSLRAEDTAVYYCARRTFGPPHAWGQGTMVTVSS
VL: DIVMTQSPLSLSVTPGEPASISCRSSQSLLHSNGYKYLDWYLQKPGQSPQLLIYMGSNRASGVPDRFSGSGSGTDFTLKISRVEAEDVGVYYCMQGLQSPLTFGGGTKVEIE
In the case of B8, the values for the A450nm in experiment [1] and in experiment [4] were 2.58 A450nm and 2.01 A450 nm, respectively. Also, the “binding normalized to PSGL-1” value in experiment [2] is 0.58; in experiment [3], 0.29.

B9: 05C02 (antibody, V domains shown)
VH: EVKLLESGGGVVQPGRSLRLSCAASGFTFKNFAMHWVRQAPGKGLEWVAVISYDGSSEDYADSVKGRFTLSRDNAKNSLYLQMNNLRAEDTAVYYCARGRRPDYWGQGTLVTVSS
VL: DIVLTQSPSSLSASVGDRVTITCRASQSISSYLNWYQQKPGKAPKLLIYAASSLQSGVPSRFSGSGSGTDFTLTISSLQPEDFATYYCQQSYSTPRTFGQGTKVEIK
B9: the results for the A450nm in experiment [1] and in experiment [4] were 2.27 A450nm and 0.64 A450 nm, respectively. The “binding normalized to PSGL-1” value stood at 0.48 in experiment [2] and 0.06 in experiment [3].

B10: 06A07 (antibody, IgG4, V domains shown)
VH: QVQLVQSGPELKNPGASVKVSCKASGYSFTNFYINWVRQAPGRGLEWVGWISPNNGNTHYARNLQGRVTMTTDTSTNTAYLELKNLRSDDTAIYFCGRSVSMGYWGQGTLVTVSS
VL: LPVLTQPPSVSKGLRQTATLTCTGNSKNVGNQGAAWLQQHQGQPPKLLSYRNNNRPSGISERFSASRSGNTASLTITGLQPEDEADYYCSAWDSSLSAQVFGGGTKLTVL
Regarding B10, the figures for the A450nm in experiment [1] and in experiment [4] were 2.51 A450nm and 1.27 A450 nm, respectively. For the same molecule, the “binding normalized to PSGL-1” value in experiment [2] stood at 0.57; in experiment [3] it was 0.12.

B11: 05A11 (antibody, IgG4, V domains shown)
VH: EVKLLESGGGVVQPGRSLRLSCAASGFSFSAYGMHWVRQAPGKGLEWVSSISGSGDGTYYADSVKGRFTISRDNSKNTLYLQMNSLRAEDAAVYYCAKSVKGRGYFFDYWGQGTLVTVSS
VL: DIVLTQSPSSLSASVGDRVTITCRASQSISSYLNWYQQKPGKAPKLLIYAASSLQSGVPSRFSGSGSGTDFTLSISNLQPEDFATYYCQQAYKFPRSFGGGTKVEFK
On to B11, for which the figures for the A450nm in experiment [1] and in experiment [4] were 1.99 A450nm and 0.7 A450 nm, respectively. In addition, the “binding normalized to PSGL-1” value amounted to 0.44 in experiment [2] and 0.21 in experiment [3].
